The substances below were run against vps35_mouse Vps35 (UniProt Q9EQH3).

| Substance | effect of a mutation on the interaction |
| --- | --- |
| Vacuolar protein sorting-associated protein 29 (Mus musculus) (from UniProt Q9QZ88-1) I91S | disrupting interaction strength |
| Vacuolar protein sorting-associated protein 29 (Mus musculus) (from UniProt Q9QZ88-1) N39D | decreasing interaction strength |
| Vacuolar protein sorting-associated protein 29 (Mus musculus) (from UniProt Q9QZ88-1) V90D | decreasing interaction strength |

From IntAct's records for PubMed 15965486
